Biological target: FLAG epitope tagged adenylyl cyclase 2 (rat)

**Q.** For protein kinase C (enzyme), which 32P incorporated into purified F-AC2 after PMA treatment of the cells is on record?
**A.** 3 fold

From US6034071
